Measurements taken from article PMC9674853, “Biasing the conformation of ELMO2 reveals that myoblast fusion can be exploited to improve muscle regeneration” (Nature Communications, 2022).

Molecular target: T1, murine ELMO2 full-length, wild type (mouse, UniProt Q8BHL5 1-732)
T1 construct: ELMO2, murine cDNA cloned into pGEX4T1; called full-length in the ITC methods; Thrombin was added to the glutathione eluates overnight before size exclusion; also called ELMO2 WT; WT ELMO2; source: E. coli BL21 codon+, purified (glutathione resin, thrombin, S75 size exclusion)
T1 sequence (looked up): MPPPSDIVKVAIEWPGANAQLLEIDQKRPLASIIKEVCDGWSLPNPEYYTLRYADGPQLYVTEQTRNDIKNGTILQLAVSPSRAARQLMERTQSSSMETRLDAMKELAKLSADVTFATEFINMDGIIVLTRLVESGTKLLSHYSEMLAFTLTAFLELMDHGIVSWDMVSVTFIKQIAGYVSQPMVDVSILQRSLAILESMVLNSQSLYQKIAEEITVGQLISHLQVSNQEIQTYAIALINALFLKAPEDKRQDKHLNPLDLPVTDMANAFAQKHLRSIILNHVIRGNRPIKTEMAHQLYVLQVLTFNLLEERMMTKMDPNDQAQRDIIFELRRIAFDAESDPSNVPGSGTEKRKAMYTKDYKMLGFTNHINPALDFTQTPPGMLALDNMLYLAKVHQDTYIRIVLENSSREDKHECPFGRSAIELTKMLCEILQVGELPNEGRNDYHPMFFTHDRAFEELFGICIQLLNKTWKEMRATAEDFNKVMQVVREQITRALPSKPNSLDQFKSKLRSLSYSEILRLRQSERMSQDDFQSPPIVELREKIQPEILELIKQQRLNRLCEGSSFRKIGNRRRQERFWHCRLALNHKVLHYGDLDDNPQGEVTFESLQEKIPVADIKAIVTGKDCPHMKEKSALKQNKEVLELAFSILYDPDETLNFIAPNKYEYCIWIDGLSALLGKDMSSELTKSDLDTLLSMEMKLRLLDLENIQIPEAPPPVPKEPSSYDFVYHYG
Test: ITC; 500 μM RHOG titrated into 40 μM Elmo2 full-length (WT or L43A); MicroCal ITC200, 25 °C; 20 mM Tris pH 7.5, 100 mM NaCl, 5 mM MgCl2, 1 mM DTT; one-site binding model
Conditions: both partners purified

Kd: 10.3 µM
B1: human RHOG (residues 1-179) (domain or fragment)
chain: not shown
notes: RHOG, human, residues 1-179, cloned into pDEST17 with a thrombin cleavage site between the 6xHIS-tag and the GTPase; For NMR uniformly 15N-labelled (M9 medium with 15NH4Cl) and loaded with GMPPNP; For ITC made in LB; also called RHOG-GMPPNP; HIS-RHOG; source: E. coli BL21 codon+, purified (Ni-NTA, thrombin cleavage, S75 size exclusion)
